Measured values reported in patent US20110171231A1 (published 2011).

B1: anti-PlGF monoclonal antibody C9.V2 (antibody, mouse IgG2a, V domains shown)
VH: EVQLVESGGGLVQPGGSLRLSCAASGFTFTNTWISWVRQAPGKGLEWVGSITPANGYTNYADSVKGRFTISADTSKNTAYLQMNSLRAEDTAVYYCARAVYPWFFAYWGQGTLVTVSS
VL: DIQMTQSPSSLSASVGDRVTITCRASQYVSHAVAWYQQKPGKAPKLLIYSASFLYSGVPSRFSGSGSGTDFTLTISSLQPEDFATYYCQSAYTPPTTFGQGTKVEIK
notes: also called C9v2.9; anti-PlGF MAb C9v2

What was measured:
recombinant mouse PlGF-2 [1] = target: T1, recombinant mouse PlGF-2 (mouse, UniProt P49764 24-158, limits assumed); assay: competition ELISA on mPlGF-coated plate; blocked ligand: biotinylated NRP-2
T1 sequence (looked up): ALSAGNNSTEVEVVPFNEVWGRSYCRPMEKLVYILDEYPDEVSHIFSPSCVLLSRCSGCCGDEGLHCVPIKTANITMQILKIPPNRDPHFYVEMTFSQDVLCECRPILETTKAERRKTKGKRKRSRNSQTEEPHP
Description: The ability of the anti-PlGF Mabs C9.V2 and 7A10 to block the interaction between PlGF and its co-receptors NRP-1 and NRP-2 (Gluzman-Poltorak et al., 2000; Mamluk et al., 2002) was also tested. For PlGF/NRP1 and PlGF/NRP2 competition binding assays, Microtiter plates (Nunc, Rochester, N.Y., USA) were coated with recombinant mouse PlGF (BioVision, Mountain View, Calif., USA) either at 2 μg/mL (for PlGF/NRP1 binding) or at 4 ug/mL (for PlGF/NRP2 binding) in PBS. After an overnight incubation at 4° C., assay plates were washed with wash buffer (PBS/0.05% Tween 20) and treated with block buffer (PBS/0.5% BSA) for 1 to 2 hours. Samples were serially diluted in sample diluent (PBS/0.5% BSA/15 ppm Proclin/0.05% Tween 20/0.2% BGG/0.25% CHAPS/5 mM EDTA/0.3 M NaCl, pH7.4) containing 0.25 ug/mL of heparin (Sigma, St. Louis, Mo., US) and incubated in the presence of either 100 ng/mL of biotin-mouse
NRP1-Fc (0.66 nM for PlGF/NRP1 binding) or 425 ng/mL of biotin-NRP2-Fc (6 nM for PlGF/NRP2-binding). After incubation for 2 hours, assay plates were washed 6 times with wash buffer and then incubated for 45 to 60 minutes with AMDEX streptavidin-HRP (GE Healthcare, Pittsburgh, Pa., USA) diluted 10,000 folds in assay buffer (PBS/0.5% BSA/0.05% Tween 20, pH7.4). […] Absorbance was measured at 450 nm against a reference wavelength of 620 nm.

human PlGF-2 = target: T2, human PlGF-2 (human, UniProt P49763-3 19-170); assay: Biacore, anti-mouse Fc chip
T2 construct: Panning used human PlGF residues 19-116 and human PlGF-1; also called hPlGF-2; hPlGF
T2 sequence (looked up): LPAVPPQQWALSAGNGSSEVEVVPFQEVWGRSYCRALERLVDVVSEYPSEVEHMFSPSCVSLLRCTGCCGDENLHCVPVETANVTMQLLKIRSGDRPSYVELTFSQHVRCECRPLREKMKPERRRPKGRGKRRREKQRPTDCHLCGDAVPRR

recombinant mouse PlGF-2 [2] = target: T1, recombinant mouse PlGF-2; assay: Biacore, anti-mouse Fc chip
recombinant mouse PlGF-2 [3] = target: T1, recombinant mouse PlGF-2; assay: cell-based or functional assay

| Molecule | IC50 (read off the curve) (recombinant mouse PlGF-2 [1]) | Kd (human PlGF-2) | Kd (recombinant mouse PlGF-2 [2]) | calculated IC50 (PlGF-induced migration of 67NR-VEGFR-1 cells, FIG. 2) (recombinant mouse PlGF-2 [3]) |
| --- | --- | --- | --- | --- |
| mFLT1(1-3)-IgG (from UniProt P35969) (Fc fusion) | 4 nM |  |  |  |
| B1 | ~4 nM | 0.8 nM | 0.9 nM | 0.8 nM |
